Bridge positions count the residues as written; N and C are the ends. Ends that are not written are not given here.
Assays:
L929 cells = experiment: Cytotoxicity assay: inhibition of TNF-α-induced cytolysis of L929 cells (MTT); type: cell-based, murine; details: FIG. 7
Protocol: FIG. 7. Inhibition of TNF-α-induced cytolysis of L929 cells by peptides derived from TNF-R. […] A murine fibroblast cell line, L929, was maintained in Dulbecco's modified Eagle's medium supplemented with 10% FCS, and the medium was replaced with serum free AIM-V medium (GIBCO BRL) immediately before the cells were used for the cytotoxicity assay. L929 cells were seeded at a density of 2×10^5 cells/ml in 96-well microtiter plates, and incubated for hr. at 37° C. under 5% CO2 in air. […] Immunol. Methods 119:203). Briefly, 10 μl of a 10 mg/ml solution of MTT were added to each well for 2 hr. at 37° C., and the color of the formazan product was developed by an overnight incubation at 37° C. with 100 μl of extraction buffer (20% SDS in 50% DMF, pH 4.7). The optical density of colored formazan was measured at 600 nm.

[1] = target: T1, TNF-α binding to TNF-R p55 expressed on U937 cells (Homo sapiens, UniProt P01375); experiment: Flow cytometry (FACS) of TNF-α binding to its cognate receptor on U937 cells, detected with anti-TNF-R antibody htr-9; type: cell-based; details: FIG. 6
T1 construct: endogenous in cells; host or cells: U937 (human leukemia cell line)
Source text: FIG. 5. […] 1=U937 cells stained with fluorescein-conjugated secondary antibody. 2=U937 cells stained with an anti-TNF receptor antibody (htr-9) and secondary antibody. 3=U937 cells stained with anti-TNF-R antibody in the presence of TNF-α and secondary antibody.
FIG. 6. […] The results represent the means from two independent experiments.
A human leukemia cell line, U937, was maintained in RPMI-1640 medium supplemented with 10% FCS. In order to quantitate the binding of TNF-α to its cognate receptor expressed on U937 cells, 1×10^5 cells were re-suspended in PBS containing 0.5% BSA and 0.05% NaN3 (binding buffer). […] Then, 50 μl of an anti-TNF receptor antibody at 3 μg/ml in binding buffer were added to the cells for 1 hr. at 4° C. The cells were washed in binding buffer and stained with 50 μl (10 μg/ml) of fluorescein-conjugated goat ant-mouse IgG secondary antibody (GIBCO BRL, Gaithersburg, Md.) for 30 min. at 4° C. in the dark. Following washing in binding buffer, the cells were analyzed using FACScan flow cytometer (Becton Dickinson). The gates were set on the live cell population, and the degree of inhibition of TNF-α/cell binding by peptides was calculated on the basis of mean values of each histogram.

Human recombinant TNF-α [2] = target: T2, Human recombinant TNF-α (human, UniProt P01375); experiment: flow cytometry on U937 cells, TNF-α preincubated with peptide, read out with htr-9
Human recombinant TNF-α [3] = target: T2, Human recombinant TNF-α; experiment: competitive radioreceptor assay, dose-response, 125I-TNF-α on immobilized TNF-R-IgG
Human recombinant TNF-α [4] = target: T2, Human recombinant TNF-α; experiment: competitive radioreceptor assay, 125I-TNF-α on immobilized TNF-R-IgG

T1 sequence (P01375 77-233 limits assumed): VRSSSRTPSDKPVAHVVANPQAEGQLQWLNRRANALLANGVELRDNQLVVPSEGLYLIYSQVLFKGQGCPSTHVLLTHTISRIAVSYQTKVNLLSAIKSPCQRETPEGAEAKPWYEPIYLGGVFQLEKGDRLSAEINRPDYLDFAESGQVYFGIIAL

CC(C)C[C@@H]1NC(=O)[C@H](Cc2ccc(O)cc2)NC(=O)[C@H](CCC(N)=O)NC(=O)[C@H](CO)NC(=O)[C@H](Cc2c[nH]c3ccccc23)NC(=O)[C@@H](NC(=O)[C@@H](N)Cc2ccc(O)cc2)CSSC[C@@H](C(=O)N[C@@H](Cc2ccc(O)cc2)C(=O)O)NC1=O [WP9QY, YC WSQYL CY]
cells protected against TNF-α-induced apoptosis/cytotoxicity (L929 cells; peptide at 75 μM, TNF-α 50 pg/ml plus ACT-D 1 μg/ml): ~90%

YC ASENH CY (YCASENHCY; disulfide 2-8 (inferred)) [WP5JY, exocyclic peptide from TNF-R loop 1 of domain 2]
inhibition of TNF-α binding to U937 cells in dose-response assay (in words) [1]: inhibited by each peptide in a dose-dependent manner

YC WSQNL CY (YCWSQNLCY; disulfide 2-8 (inferred)) [WP9Q, exocyclic peptide from TNF-R loop 1 of domain 3, Gln instead of Glu]
inhibition of TNF-α binding to U937 cells in dose-response assay (in words) [1]: inhibited by each peptide in a dose-dependent manner | inhibition of TNF-α-induced cytotoxicity of L929 cells (in words) (L929 cells): dose-dependent inhibitory activity | inhibitory effect on TNF-α-induced cytotoxicity relative to WP9QY (L929 cells): about half of the effects of WP9QY

YCWSQYLCY (disulfide 2-8 (inferred)) [WP9QY]
IC50 (Human recombinant TNF-α [2]): 75 µM | IC50 (Human recombinant TNF-α [3]): 5 µM

YCWSQNLCY (disulfide 2-8 (inferred)) [WP9Q]
fold activity against the best WP5 peptides (Human recombinant TNF-α [4]): 2 fold

— US6265535A, “Peptides and peptide analogues designed from binding sites of tumor necrosis factor receptor superfamily and their uses” (The Trustees of the University of Pennsylvania, priority 1997, dated 2001)
